Source: doi:10.1101/2025.09.16.675330

Key:
Glu105 = experiment: UV-vis; conditions: dark (ground) state, retinal-bound wild type; cited from earlier work
[1] = molecular target: ChR024 (cation-conducting channelrhodopsin), full-length wild type, residues M1-T280; experiment: cryo-EM structure

Substance	pKa (Glu105)	stoichiometry N [1]
ChR024 (cation-conducting channelrhodopsin) (not stated (uncultured organism; sequence mined from a metagenomic database, identifier IMGM3300027749|Ga0209084_1026585|Ga0209084_10265853))	8.25	–
ChR024 (cation-conducting channelrhodopsin), full-length wild type, residues M1-T280 (natural protein)	–	3
